# Measurements as given in article PMC1762009, “Structure of the yeast histone H3-ASF1 interaction: implications for chaperone mechanism, species-specific interactions, and epigenetics” (BMC Structural Biology, 2006).
# Target: T1, conserved N-terminus of yeast Asf1 (residues 2–155) (S. cerevisiae, UniProt P32447 2-155)
# T1 construct: Asf1 (anti-silencing function 1), budding yeast, residues 2-155; Written as a molecule of its own for the pair; also called Asf1N; ScAsf1; source: E. coli, purified (Ni-chromatography, TEV cleavage, second Ni step, gel filtration); not shown: His6, N-terminal, cleaved; MBP, N-terminal, cleaved
# T1 sequence (P32447 2-155): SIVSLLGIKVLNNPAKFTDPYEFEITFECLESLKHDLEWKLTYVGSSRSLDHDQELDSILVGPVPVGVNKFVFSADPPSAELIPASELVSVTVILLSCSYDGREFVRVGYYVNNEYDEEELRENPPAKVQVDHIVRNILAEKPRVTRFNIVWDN
# Experiment: crystal structure; Asf1N fused to H3α3 by the linker AAGAATAA on one chain; hanging-drop vapor diffusion, 18°C, 85 mM Tris-HCl (pH 8.5), 120 mM Li2SO4, 25% PEG 4000, 15% glycerol; 2.2 Å
# Details: both partners purified
binder,measurement,value
"KKDIKLARRLRGER (domain or fragment, S. cerevisiae, UniProt P61830 122-135, looked up, histone H3, budding yeast, C-terminal alpha helix, amino acids 121-134; The final model holds H3 residues 121-131 only; also called H3α3; ScH3 121-134; source: E. coli, purified (Ni-chromatography, TEV cleavage, second Ni step, gel filtration), as a fusion behind Asf1N) [C-terminal α3 helix of yeast histone H3 (residues 121–134)]",binding result,binds
